According to patent US20240376170A1 (BRIGHT PEAK THERAPEUTICS, published 2024):
Each block holds one binder with its values, some of them ahead of it. Bridges are numbered along the chain shown (N, C = ends). Primed or numbered codes have the meaning given here. [ ]: non-standard residue; d: D form. Ygp(4) = Tyr with amino-capped PEG8 (O-(8x polyethylene glycol-amino)-tyrosine); Yn3(4) = Tyr with azide-capped PEG9 (O-(9x polyethylene glycol-azido)-tyrosine); Ygp = O-(8x polyethylene glycol-amino)-tyrosine (Tyr, amino-capped PEG8); Yn3 = O-(9x polyethylene glycol-azido)-tyrosine (Tyr, azide-capped PEG9); Ygp(3) = O-(PEG8-amino)-tyrosine; Yn3(3) = O-(PEG9-azido)-tyrosine; hSer = N[C@@H](CCO)C(=O)O; Nle = CCCC[C@H](N)C(=O)O

Columns and labels:
[1] = molecular target: T1, recombinant human IL-2 receptor beta containing a His-tag and Avi-tag (human, UniProt P14784 27-239); assay: BLI (Octet R8), receptor on SAX2 sensor
T1 construct: Bought; attached to the SAX2 biosensor; also called CD122; IL-2R β; not shown: His-tag and Avi-tag
T1 sequence (looked up): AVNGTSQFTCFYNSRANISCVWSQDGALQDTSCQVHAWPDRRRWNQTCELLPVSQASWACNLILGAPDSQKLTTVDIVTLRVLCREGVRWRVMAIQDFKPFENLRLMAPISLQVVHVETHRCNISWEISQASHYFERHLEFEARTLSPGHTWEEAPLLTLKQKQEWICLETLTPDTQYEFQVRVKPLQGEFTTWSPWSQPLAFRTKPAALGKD
Procedure: (§1) Bilayer interferometry (BLI) assays were used to measure the binding constants between activatable IL-2 polypeptides (and activated versions thereof) to IL-2 receptor subunits or receptor complexes. BLI assays were conducted on an Octet® R8 instrument. Assay plates were 96 well, polypropylene, F-bottom (chimney well), black microplates (Greiner Bio-one, Cat. No: 655209). The biosensors were Octet® SAX2 (Sartorius, Cat. No: 18-5136). The assay buffer was 1X Kinetic Buffer (Sartorius, Cat. no: 18-5136) or Phosphate Buffered Saline (PBS) that contained 0.02% (v: v) Tween 20 (Polysorbate 20) and 0.1% (w/v) bovine serum albumin (BSA). The sensor was regenerated between measurements in 10 mM glycine pH 2.7 buffer.
(§2) Sensor attached receptors were either recombinant human IL-2 receptor beta containing a His-tag and Avi-tag™ (R&D Systems™) or an Avi-tag™ Fc with human IL-2R beta and IL-2R gamma attached (Acrobiosystems Cat. no: ACRB-ILG-H₈₂F3-25UG). Receptors were reconstituted from lyophilized powder to 500 μg/ml in PBS. Analytes were diluted in Kinetic buffer to 300 nM, then serially diluted to lower concentrations.

[2] = molecular target: T2, Avi-tag Fc with human IL-2R beta and IL-2R gamma attached (Acrobiosystems ACRB-ILG-H82F3-25UG) (human, UniProt P14784 27-239; P31785 23-262); assay: BLI (Octet R8), receptor on SAX2 sensor
T2 construct: Bought; attached to the SAX2 biosensor; also called CD122 CD132; IL-2R βγ; not shown: Fc and Avi-tag
T2 sequence (looked up) 1: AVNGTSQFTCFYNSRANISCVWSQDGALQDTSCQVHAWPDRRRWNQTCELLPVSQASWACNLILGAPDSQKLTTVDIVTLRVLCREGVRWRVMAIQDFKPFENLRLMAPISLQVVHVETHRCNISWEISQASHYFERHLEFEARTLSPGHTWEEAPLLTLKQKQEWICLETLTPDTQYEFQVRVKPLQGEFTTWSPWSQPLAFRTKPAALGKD
T2 sequence (looked up) 2: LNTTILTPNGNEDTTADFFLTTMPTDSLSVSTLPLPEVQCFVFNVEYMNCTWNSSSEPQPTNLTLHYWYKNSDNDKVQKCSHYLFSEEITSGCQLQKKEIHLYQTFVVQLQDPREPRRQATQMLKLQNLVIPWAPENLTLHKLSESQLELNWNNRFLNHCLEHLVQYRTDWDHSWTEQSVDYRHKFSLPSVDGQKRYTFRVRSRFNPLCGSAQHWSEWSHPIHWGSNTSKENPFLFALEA
Procedure: as §1, §2

[3] = molecular target: T3, IL-2Rβγ on HEK-Blue IL-2Rβγ reporter cells (InvivoGen) (UniProt P14784 27-551; P31785 23-369, limits assumed); assay: cell-based or functional assay
T3 sequence (looked up) 1: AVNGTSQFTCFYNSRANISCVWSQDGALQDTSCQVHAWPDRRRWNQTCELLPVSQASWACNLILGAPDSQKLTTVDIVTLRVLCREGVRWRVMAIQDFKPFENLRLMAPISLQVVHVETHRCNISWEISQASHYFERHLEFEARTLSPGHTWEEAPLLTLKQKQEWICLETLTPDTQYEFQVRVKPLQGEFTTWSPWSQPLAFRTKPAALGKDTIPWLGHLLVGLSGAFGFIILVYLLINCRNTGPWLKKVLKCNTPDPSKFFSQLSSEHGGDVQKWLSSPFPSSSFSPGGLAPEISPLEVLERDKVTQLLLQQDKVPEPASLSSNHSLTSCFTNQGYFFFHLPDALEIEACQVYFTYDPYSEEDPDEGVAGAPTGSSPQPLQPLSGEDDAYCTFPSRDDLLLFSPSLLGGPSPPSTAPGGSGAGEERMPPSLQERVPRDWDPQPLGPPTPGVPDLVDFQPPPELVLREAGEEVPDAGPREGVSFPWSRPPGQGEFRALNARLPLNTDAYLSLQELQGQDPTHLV
T3 sequence (looked up) 2: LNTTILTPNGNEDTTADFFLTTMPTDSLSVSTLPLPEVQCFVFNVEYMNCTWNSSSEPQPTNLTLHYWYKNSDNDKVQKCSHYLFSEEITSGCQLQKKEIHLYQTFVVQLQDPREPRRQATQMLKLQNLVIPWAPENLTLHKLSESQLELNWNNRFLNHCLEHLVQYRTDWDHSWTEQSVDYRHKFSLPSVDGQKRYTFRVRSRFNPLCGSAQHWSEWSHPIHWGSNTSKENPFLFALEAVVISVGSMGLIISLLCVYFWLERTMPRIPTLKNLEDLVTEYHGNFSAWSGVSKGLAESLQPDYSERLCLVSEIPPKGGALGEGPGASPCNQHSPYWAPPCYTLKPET

[4] = molecular target: T4, IL-2 receptor βγ complex on human T cells (human, UniProt P14784 27-551; P31785 23-369); assay: cell-based or functional assay
T4 sequence (looked up) 1: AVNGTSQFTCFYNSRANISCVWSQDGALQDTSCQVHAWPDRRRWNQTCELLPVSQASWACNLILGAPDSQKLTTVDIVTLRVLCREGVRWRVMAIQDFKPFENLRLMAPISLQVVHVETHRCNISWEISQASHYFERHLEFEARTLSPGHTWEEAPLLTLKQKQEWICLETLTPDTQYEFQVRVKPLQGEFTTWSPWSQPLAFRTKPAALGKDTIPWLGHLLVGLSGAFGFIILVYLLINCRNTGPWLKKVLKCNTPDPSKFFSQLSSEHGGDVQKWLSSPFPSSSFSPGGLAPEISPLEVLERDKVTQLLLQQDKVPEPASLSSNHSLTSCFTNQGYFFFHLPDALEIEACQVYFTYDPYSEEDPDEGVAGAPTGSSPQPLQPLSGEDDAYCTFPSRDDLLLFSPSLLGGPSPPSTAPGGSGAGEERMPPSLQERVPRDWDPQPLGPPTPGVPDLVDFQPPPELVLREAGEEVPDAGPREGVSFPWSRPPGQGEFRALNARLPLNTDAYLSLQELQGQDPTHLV
T4 sequence (looked up) 2: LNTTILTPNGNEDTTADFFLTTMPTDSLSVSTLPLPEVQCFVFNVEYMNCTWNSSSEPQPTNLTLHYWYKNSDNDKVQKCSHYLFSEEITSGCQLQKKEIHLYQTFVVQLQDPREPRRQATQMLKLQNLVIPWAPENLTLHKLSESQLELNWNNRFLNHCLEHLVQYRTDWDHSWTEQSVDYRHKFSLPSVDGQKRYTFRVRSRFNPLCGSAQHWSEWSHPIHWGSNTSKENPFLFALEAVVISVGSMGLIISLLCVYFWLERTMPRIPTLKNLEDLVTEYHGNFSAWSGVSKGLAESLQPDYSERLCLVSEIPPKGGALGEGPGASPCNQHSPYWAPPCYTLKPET

[5] = molecular target: T5, IL-2 receptor βγ complex (human, UniProt P14784 27-551; P31785 23-369); assay: cell-based or functional assay
T5 sequence (looked up) 1: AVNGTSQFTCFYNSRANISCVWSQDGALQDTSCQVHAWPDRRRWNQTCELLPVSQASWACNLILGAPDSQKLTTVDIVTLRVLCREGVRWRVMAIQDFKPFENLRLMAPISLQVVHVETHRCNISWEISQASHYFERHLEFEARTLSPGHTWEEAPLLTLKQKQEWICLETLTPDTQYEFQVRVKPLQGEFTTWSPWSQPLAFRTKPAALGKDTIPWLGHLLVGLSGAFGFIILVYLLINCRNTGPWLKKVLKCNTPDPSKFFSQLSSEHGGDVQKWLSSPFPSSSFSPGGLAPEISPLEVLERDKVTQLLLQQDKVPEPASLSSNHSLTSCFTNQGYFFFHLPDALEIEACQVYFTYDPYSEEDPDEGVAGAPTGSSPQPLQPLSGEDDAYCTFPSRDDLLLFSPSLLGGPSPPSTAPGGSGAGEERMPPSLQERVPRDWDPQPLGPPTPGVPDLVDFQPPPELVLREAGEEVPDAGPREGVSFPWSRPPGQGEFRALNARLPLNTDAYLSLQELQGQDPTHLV
T5 sequence (looked up) 2: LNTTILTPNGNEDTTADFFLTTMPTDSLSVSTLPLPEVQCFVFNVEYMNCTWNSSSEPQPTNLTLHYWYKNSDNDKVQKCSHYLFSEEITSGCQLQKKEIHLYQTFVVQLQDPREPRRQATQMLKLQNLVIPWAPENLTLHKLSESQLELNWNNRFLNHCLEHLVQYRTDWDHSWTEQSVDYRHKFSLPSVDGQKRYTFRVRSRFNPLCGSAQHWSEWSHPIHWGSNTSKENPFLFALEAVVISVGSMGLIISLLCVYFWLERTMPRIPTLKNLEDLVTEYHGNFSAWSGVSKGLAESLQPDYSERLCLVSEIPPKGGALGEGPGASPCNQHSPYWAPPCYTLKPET

[6] = molecular target: T5, IL-2 receptor βγ complex; assay: cell-based or functional assay; remark: listed apart in the source

B2: CMP-146 (ligand)
chain: APTSSSTKKTKLQLEHLLLDLQ[Nle]ILNGINNYKNPKLTR[Nle]L[hSer][Yn3(3)]KF[Ygp(3)][Nle]PKKATELKHLQCLEEELKPLEEVL[hSer]LAQSKNFHLRPRDLISNINVIVLELKGSETTF[hSer]CEYADETATIVEFLNRWITFSQSIISTLT
modifications: also: further groups not given here
Average EC50, pSTAT5 Assay (T cells), intact molecule [4]: 4.29 nM

B3: CMP-146, MMP2 cleaved (ligand)
chain: APTSSSTKKTKLQLEHLLLDLQ[Nle]ILNGINNYKNPKLTR[Nle]L[hSer][Yn3(3)]KF[Ygp(3)][Nle]PKKATELKHLQCLEEELKPLEEVL[hSer]LAQSKNFHLRPRDLISNINVIVLELKGSETTF[hSer]CEYADETATIVEFLNRWITFSQSIISTLT
modifications: also: MMP2-cleaved form, remnant not given here, Lys11 side chain attached moiety
Average EC50, pSTAT5 Assay (T cells), MMP2 cleaved molecule [4]: 0.92 nM

B4: CMP-147 (ligand)
chain: APTSSSTKKTQLKLEHLLLDLQ[Nle]ILNGINNYKNPKLTR[Nle]L[hSer][Yn3(3)]KF[Ygp(3)][Nle]PKKATELKHLQCLEEELKPLEEVL[hSer]LAQSKNFHLRPRDLISNINVIVLELKGSETTF[hSer]CEYADETATIVEFLNRWITFSQSIISTLT
modifications: also: further groups not given here
Average EC50, pSTAT5 Assay (T cells), intact molecule [4]: 3.86 nM

Other lines, results leading:

Kd [1]: 59.5 nM | koff [1]: 0.0122 s⁻¹ | kon [1]: 206000 M⁻¹ s⁻¹ | Kd [2]: 9.19 nM | koff [2]: 0.000786 s⁻¹ | kon [2]: 85500 M⁻¹ s⁻¹ | Average EC50, HEK-Blue IL-2R (CD122+, CD132+) Reporter Assay, intact molecule [3]: 1.05 nM
B1: CMP-319 (ligand)
chain: RGRRVANLVGAPTSSSTKKTQLQLEHLLLDLQEILNGINNYKNPKLTR[Nle]L[hSer][Yn3]KF[Ygp][Nle]PKKATELKHLQCLEEELKPLEEVL[hSer]LAQSKNFHLRPRDLISNINVIVLELKGSETTF[hSer]CEYADETATIVEFLNRWITFSQSIISTLT
modifications: lactam N-33; ends not checked

Average EC50, pSTAT5 Assay in NK cells [5]: 53.9 nM | Average EC50, pSTAT5 Assay (T cells) [6]: 144 nM
B5: CMP-168 (ligand)
chain: APTSSSTKKTQLQLEHLLLDLQEILNGINNYKNPKLTR[Nle]L[hSer][Yn3(4)]KF[Ygp(4)][Nle]PKKATELKHLQCLEEELKPLEEVL[hSer]LAQSKNFHLRPRDLISNINVIVLELKGSETTF[hSer]CEYADETATIVEFLNRWITFSQSIISTLT
modifications: bridge 9-23; not fully specified (bridges); ends not checked; also: sequence of the cleavable bridging peptide not given here
